# B1: IL-23: an IL-12 family cytokine, essential for enhancing generation of TH17 cells (protein, UniProt Q9NPF7 20-189; P29460 23-328, looked up)
# Interleukin-23 subunit alpha: RAVPGGSSPAWTQCQQLSQKLCTLAWSAHPLVGHMDLREEGDEETTNDVPHIQCGDGCDPQGLRDNSQFCLQRIHQGLIFYEKLLGSDIFTGEPSLLPDSPVGQLHASLLGLSQLLQPEGHHWETQQIPSLSPSQPWQRLLLRFKILRSLQAFVAVAARVFAHGAATLSP
# Interleukin-12 subunit beta: IWELKKDVYVVELDWYPDAPGEMVVLTCDTPEEDGITWTLDQSSEVLGSGKTLTIQVKEFGDAGQYTCHKGGEVLSHSLLLLHKKEDGIWSTDILKDQKEPKNKTFLRCEAKNYSGRFTCWWLTTISTDLTFSVKSSRGSSDPQGVTCGAATLSAERVRGDNKEYEYSVECQEDSACPAAEESLPIEVMVDAVHKLKYENYTSSFFIRDIIKPDPPKNLQLKPLKNSRQVEVSWEYPDTWSTPHSYFSLTFCVQVQGKSKREKKDRVFTDKTSATVICRKNASISVRAQDRYYSSSWSEWASVPCS
# Assays:
# [1] = system: SGK1 expression in naïve CD4+ T cells; assay: SGK1 mRNA expression during T cell / TH17 differentiation; assay type: cell-based
# Protocol: Naïve CD4+ T cells were cultured in TH17 differentiating condition (TGF-β plus IL-6) for 96 hours.
# The correlation between the SGK1 expression level during T cell differentiation was previously unknown, so SGK1 mRNA level was first measured under different conditions during T cell differentiation (FIG. 1). […] IL-23, an IL-12 family cytokine, is essential for enhancing generation of TH17 cells.
# The time dependent expression of SGK1 during TH17 differentiation was further examined by culturing naïve CD4+ T cells under TH17 differentiating conditions (TGF-β plus IL-6) for 96 hours. After 48 hours, TH17 cells were supplemented with IL-23 until the end of the culture period.
# [2] = system: TH17 cells; assay: IL-23 dependent expansion of differentiated TH17 cells, intracellular cytokine staining for IL-17; assay type: cell-based, mice
# Protocol: Naïve CD4+ T cells were sorted from wild-type and SGK1-deficient mice and cultured under TH17 differentiation conditions. After a first round of stimulation, the cells were rested for two days in cytokine free medium. Two days later, cells were activated in the presence or absence of IL-23, and intracellular cytokine staining was performed for IL-17.
# (§1) It has been shown that exposure of IL-23 is essential for expanding and stabilizing TH17 cells. […] It was next tested whether SGK1 is essential for IL-23-dependent expansion of TH17 cells. Naïve CD4+ T cells were sorted from wild-type and SGK1-deficient mice and were cultured under TH17 differentiation conditions, as described herein. After a first round of stimulation, cells were rested for two days in a cytokine-free medium. Two days later, cells were activated in the presence or absence of IL-23, and intracellular cytokine staining was performed for IL-17 expression. […] It was further tested whether IL-23 can expand sorted memory TH17 cells. Both wild-type and SGK1-deficient CD4^+CD62L^− cells were sorted and cultured with either anti-CD3 alone or anti-CD3 plus IL-23.
# [3] = system: CD4+CD62L- cells (memory CD4 cells); assay: IL-17A and IL-17F expression in sorted memory CD4+CD62L- cells; assay type: cell-based, mice; details: anti-CD3 plus IL-23 vs anti-CD3 alone (FIG. 5)
# Protocol: Wild-type and SGK1-deficient CD4+CD62L-cells (memory CD4 cells) were sorted and cultured with either anti-CD3 alone or anti-CD3 plus IL-23.
# as §1
molecule,measurement,setting,value
IL-6: STAT3-activating cytokine used with TGF-β for TH17 differentiation,expression of SGK1 (mRNA),[1]; IL-6 added together with TGF-β (FIG. 1),further increased the expression SGK1
TGF-β,expression level of SGK1 (mRNA),"[1]; T cell differentiation, TGF-β (FIG. 1)",upregulate the expression level of SGK1
B1,IL-17 expressing TH17 cells after re-activation with IL-23,"[2]; SGK1-deficient TH17 cells, ~4% in absence of IL-23",~1%
same,IL-17 expressing TH17 cells after re-activation with IL-23,"[2]; wild-type TH17 cells, 11.5% in absence of IL-23",13%
same,expression of SGK1 (mRNA),"[1]; IL-23, further to TGF-β and IL-6 (FIG. 1)",further enhances the expression of SGK1
same,time dependent expression of SGK1,[1]; TH17 cells supplemented with IL-23 after 48 hours (FIG. 2),further induced SGK1 expression
same,expression of IL-17A and IL-17F,[3]; SGK1-deficient memory cells,defective in inducing expression of IL-17A and IL-17F
same,expression of IL-17A and IL-17F,[3]; wild-type memory cells,clearly enhanced the expression of IL-17A and IL-17F

# Source: patent US20130017188A1, “MODULATION OF SGK1 EXPRESSION IN TH17 CELLS TO MODULATE TH17-MEDIATED IMMUNE RESPONSES” (THE BRIGHAM AND WOMEN'S HOSPITAL, INC., priority 2009, published 2013)
